In PMC9798254 one finds Km, kcat and kcat/Km data, which are given here for one protein.

The Km is the concentration of substrate that gives half-maximal velocity. The term kcat denotes the number of substrate molecules converted per active site and unit of time at saturation. What is called kcat/Km is the turnover number divided by the Michaelis constant.

Substrate in series [1]: O=P(O)(O)OC[C@@H](O)[C@H]1O[C@H](OP(=O)(O)O)[C@@H](O)[C@@H](O)[C@@H]1O
The series is described as follows: purified protein. The settings on record: 100 mM Tris/HCl pH 7.8, 5 mM MgCl2, 25°C.

Substrate in series [2]: O=P(O)(O)OC[C@@H](O)[C@H]1O[C@@H](OP(=O)(O)O)[C@@H](O)[C@@H](O)[C@@H]1O
In words: purified protein. To be noted: 100 mM Tris/HCl pH 7.8, 5 mM MgCl2, 25°C.

B1: ecGmhB (Escherichia coli K-12) (protein)
chain: MAKSVPAIFLDRDGTINVDHGYVHEIDNFEFIDGVIDAMRELKKMGFALVVVTNQSGIARGKFTEAQFETLTEWMDWSLADRDVDLDGIYYCPHHPQGSVEEFRQVCDCRKPHPGMLLSARDYLHIDMAASYMVGDKLEDMQAAVAANVGTKVLVRTGKPITPEAENAADWVLNSLADLPQAIKKQQKPAQ
Turning to B1, in “purified protein [1]”, the Michaelis-Menten constant (Km) amounted to 117 ± 15 µM, the kcat stood at 3.5 ± 0.2 s⁻¹ and the specificity constant (kcat/Km) was 29900 M⁻¹ s⁻¹. In addition, in the series “purified protein [2]”, the Km amounted to 2.3 ± 0.3 µM, the kcat is 35.7 ± 1.1 s⁻¹ and the kcat/Km is 1.55e+07 M⁻¹ s⁻¹.
